Measured values as given in the supplement of paper PMC10567573.

B1: KLHL13 (parent)
chain: TGEFLKLPFERLAFVLSSNSLKHC
B2: ALDH8A1 (parent)
chain: FTGSQPTAERITQLSAPHCKKLSL

Variants of: B1
Assay: protein stability index of a GFP-peptide fusion (GPS, HEK-293T) (PSI 1-6); higher = more stable
Settings: c terminus: a fixed tail appended
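Further: lentivirally expressed fusions sorted by FACS into six bins by GFP to DsRed ratio, PSI derived from sequencing read proportions per bin multiplied by bin number.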

Protein stability index, by site and new letter:
S17: Y 2.46 | W 3.66 | Q 1.72 | N 2.33 | P 1.7 | R 2.82
H23: V 2.8 | R 1.99 | S 4.04 | T 2.17 | P 1.85 | D 2.27 | W 1.88 | M 2.02 | Y 3.32 | Q 4.44 | N 2.42 | K 2.49 | C 2.87
L21: C 3.31 | E 2.45 | K 1.26 | Y 2.33 | H 2.14 | F 1.42 | D 2.79 | G 1.75 | V 1.72 | T 2.49 | A 2.92 | R 1.63 | M 3.88 | S 1.44 | Q 1.91 | I 3.4 | P 2.39 | N 1.88
S18: L 3.02 | Y 2.79 | A 1.35 | K 3.09 | E 2.37 | V 4.13 | F 2.48 | Q 1.61 | P 2.64 | C 3.11 | D 2.42 | N 1.98 | W 2.81 | H 2.48
C24: E 1.81 | Y 3.19 | M 2.65 | W 1.03 | F 3.88 | A 1.75 | G 1.9 | D 2.13 | I 4.16 | H 2.56 | T 2.1 | K 1.61 | N 2.94 | L 2.62 | Q 1.6 | V 2.76 | R 2.4 | S 1.76
K22: G 2.18 | Y 1.96 | R 2.48 | T 2.34 | D 2.77 | L 3.44 | C 4.71 | I 2.96 | W 3.33 | Q 4.87 | E 2.2 | M 3.25 | A 2.4 | V 3.78 | N 4.57 | P 3.24 | S 4.04
N19: P 2.62 | Q 1.81 | L 3.66 | C 4.21 | E 2.44 | V 2.24 | D 1.56 | M 3.78 | R 2.56 | G 3.21 | Y 3.05 | T 2.98 | K 2.22 | W 3.01
S20: R 1.87 | G 2.59 | P 2.4 | H 1.49 | I 2.7 | T 2.98 | L 3.05 | C 3.52 | M 3.42 | K 2.43 | N 3.25 | E 2.34 | F 2.55 | D 2.29

Variants of: B2
Assay: as above
Settings: c terminus: a fixed tail appended

Protein stability index of substitutions, site by site:
S4: T 2.69 | L 2.1 | I 2.36 | W 3.16 | F 2.03 | M 1.98 | A 2.56 | P 2.67 | D 3.06
C19: D 2.73 | A 2.35 | W 1.6 | N 2.16 | F 2.91 | V 2.04 | I 1.66 | P 2.06 | E 2.79
P6: K 2.7 | W 3.07 | T 1.77 | Y 1.92 | F 1.9 | H 2.25 | R 2.15 | S 2.1
H18: W 1.85 | T 2.31 | E 1.78 | K 2.34 | V 3 | Q 2.29 | A 2.05 | D 3.24 | R 2.55 | G 2.05 | C 1.94 | N 2.11 | L 2.46 | Y 2.14
L24: M 2.46 | D 3.23 | K 2.5 | T 2.56 | H 2.52 | N 2.97 | Q 2.9 | F 1.97
A16: C 1.55 | W 1.45 | L 2.17 | H 2.13 | F 2.33 | I 2.25 | K 2.03
Q13: L 2.08 | K 2.48 | T 2.3 | E 2.5 | A 2.31 | R 1.91 | P 2.16 | G 2.31 | V 1.69 | W 2.67 | N 2.2 | Y 1.97 | I 1.35
I11: L 2.15 | M 2.61 | F 2.9 | A 2.48 | V 2.44 | N 2.4 | S 2.22 | K 1.93
R10: Y 1.65 | A 2.31 | E 2.51 | D 2.31 | F 1.9 | T 2.39 | S 2.42 | H 2.3 | P 2.7
L22: S 2.61 | I 2.76 | V 1.91 | G 2.88 | F 1.92 | K 2.68 | E 3.46 | C 2.27 | W 2.19 | P 2.26
G3: A 2.88 | Q 2.38 | V 2.44 | T 2.69 | N 2.62 | D 3.15 | K 3.45 | P 2.07 | R 2.71 | W 2.66 | M 2.56
L14: D 3.04 | I 2.53 | S 2.76 | Q 2.57 | T 2.87 | A 2.26 | K 2.73
K20: V 1.93 | S 2.26 | N 2.53 | F 1.52 | H 1.88 | Q 2.8
E9: V 1.46 | K 2.06 | F 2.74 | G 2.1 | H 2.15 | D 2.52 | I 2.23 | A 1.96 | S 1.86 | T 1.87 | N 1.99
P17: S 2.18 | Y 2.05 | T 2.24 | K 2.12 | F 1.85 | D 2.8 | N 2.55 | Q 2.48 | G 2.25 | R 2.49
Q5: L 1.65 | R 2.39 | N 2.33 | S 3.01 | P 2.99 | A 2.08 | T 2.24 | H 2.14 | Y 2.36 | W 4.02
S23: N 2.39 | F 2.27 | K 2.03 | V 1.93 | H 2.02 | A 2.4
S15: Q 2.09 | V 2.36 | I 2.28 | F 3.03 | N 1.91 | Y 3.69 | D 2.18 | A 2.39 | W 2.39 | P 2.32 | T 2.25 | E 2.37
T12: E 3.25 | F 2.86 | Q 2.36 | A 2.21 | M 2 | C 1.83 | G 2.27 | L 1.79 | Y 2.69
F1: I 3.86 | D 4.38 | C 3.48 | R 3.78 | A 4.03 | M 3.62 | S 3.92 | W 3.35 | Q 4.31
T7: Y 2.61 | A 3.05 | R 2.55 | V 2 | K 2.32 | I 2.39 | C 2 | N 2.83
K21: W 1.71 | Y 2.1 | S 2.22 | D 2.89 | G 2.01 | N 2.05
T2: D 3.95 | W 2.53 | E 3.86 | P 3.41 | N 3.41 | L 2.74 | G 3.19 | K 3.42
A8: F 1.42 | P 2.3 | L 2.42 | G 2.95 | Q 2.4 | E 2.6 | T 2.24 | K 1.8 | N 2.09 | H 2.61 | Y 2.27 | W 3.71
